The nanobody polyreactivity screen of Harvey et al. (2022)

Assay: yeast display, Sf9 membrane polyspecificity reagent, FACS + sequencing; frameworks hold sequencing errors
Summary of the method: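 Genes from sorted yeast were amplified by colony PCR, read by MiSeq 2 × 250 sequencing and filtered on CDR length. These cells carried a synthetic nanobody library in Saccharomyces cerevisiae BJ5465 and were sorted by FACS into low and high (top ~1%) gates on anti-HA and streptavidin fluorescence. Polyreactivity is labelled according to the gate of origin.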

Row | Sequence | polyreactivity (PSR sort gate)
1 | QVQLVESGGGLVQAGGSLRLSCAASGITFVAYAMGWYRQAPGKERELVAAISKSGGNTYYADSVKGRFTISRDNAKNTVYLQMNSLKPEDTAVYYCAAPRRYAWGQVNYWGQGTQVTVSS | high polyreactivity
2 | QVQLVESGGGLVQAGGSLRLSCAASGITFVGNAMGWYRQAPGKERELVAGIRGNGGSTYYADSVKGRFTISRDNAKNTVYLQMNSLKPEDTAVYYCAAAAYYADFDYWGQGTQVTVSS | low polyreactivity
3 | QVQLVESGGGLVQAGGSLRLSCAASGITFVGNDMGWYRQAPGKERELVATISSSGTRTYYADSVKGRFTISRDNAKNTVYLLMNSLKPEDTAVYYCAARWRSYITYWFDYWGQGTQVTVSS | low polyreactivity
4 | QVQLVESGGGLVQAGGSLRLSCAASGITFVRNAMGWYRQAPGKEREFVAAISWSGGSTYYADSVKGRFTISRDNAKNTVYLQMNSLKPEDTAVYYCAKRSRGVKYDYWGQGTQVTVSS | high polyreactivity
5 | QVQLVESGGGLVQAGGSLRLSCAASGITFVRNAMGWYRQAPGKERELVAAITSRGGITYYADSVKGRFTISRDNAKNTVYLQMNSLKPEDTAVYYCNKTRGYAVNGYNYWGQGTQVTVSS | high polyreactivity
6 | QVQLVESGGGLVQAGGSLRLSCAASGITFVRYAMGWYRQAPGKEREFVAAINSIVGRTYYADSVKGRFTISRDNAKNTVYLQMNSLKPEDTAVYYCAADSNVRYGMDYWGQGTQVTVSS | low polyreactivity
7 | QVQLVESGGGLVQAGGSLRLSCAASGITFVRYAMGWYRQAPGKERELVAAISSGGSTHYADSVKGRFTISRDNAKNTVYLQMNSLKPEDTAVYYCAAQWTESSLYRFGYWGQGTQVTVSS | high polyreactivity
8 | QVQLVESGGGLVQAGGSLRLSCAASGITFVSYTMGWYRQAPGKERELVAAISTSGGSTYYADSVKGRFTISRDNAKNTVYLQMNSLKPEDTAVYYCAARQVRTIRKYGYWGQGTQVTVSS | high polyreactivity
9 | QVQLVESGGGLVQAGGSLRLSCAASGITFVTYAMGWYRQAPGKEREFVASINWITGNTYYADSVKGRFTISRDNAKNTVYLQMNSLKPEDTAVYYCATVDWSLYLGTPPSYYWGQGTQVTVSS | low polyreactivity
10 | QVQLVESGGGLVQAGGSLRLSCAASGITFVTYAMGWYRQAPGKERELVAAISRSGGRTYYADSVKGRFTISRDNAKNTVYLQMNSLKPEDTAVYYCAAERKNKYDYWGQGTQVTVSS | high polyreactivity
11 | QVQLVESGGGLVQAGGSLRLSCAASGITFVYYAMGWYRQAPGKDRELVAAITSTGGSTYYADSVKGRFTISRDNAKNTVYLQMNSLKPEDTAVYYCAAVPRGTQGAMDYWGQGTQVTVSS | low polyreactivity
12 | QVQLVESGGGLVQAGGSLRLSCAASGITFVYYAMGWYRQAPGKERELVAAISKNGGSTYYADSVKGRFTISRDNAKNTVYLQMNSLKPEDTAVYYCAAEEGYRWVRYNYWGQGTQVTVSS | high polyreactivity
13 | QVQLVESGGGLVQAGGSLRLSCAASGITFVYYAMRSYRQAPGKERELVAAITRSGDSTYYADSVKGRFTISRDNAKNTVYLQMNSLKPEDSAVYYCAAESYYSTYQVEYYYWGQGTQVTVSS | high polyreactivity
14 | QVQLVESGGGLVQAGGSLRLSCAASGITFWANAMGWERQAPGKERELVASIRSSGGSTYYADSVKGRFTISRDNAKNTVYLQMYSLKPEDTAVYYCYAKRTGPWFLHVPVYYWGQGTQVTVSS | low polyreactivity
15 | QVQLVESGGGLVQAGGSLRLSCAASGITFWLYAMGWYRQAPGKERELVAAISYSGGSTYYADSVKGRFTISRDNAKNTVYLQMNSLKPEETEVYYCNTGSRYRPNRRYGYWGQGTQVTVSS | high polyreactivity
16 | QVQLVESGGGLVQAGGSLRLSCAASGITFWNNAKGWYRQAPGKEREFVATISSNGGRTYYADSVKGRFTISRDNAKNTVYLQMNSLKPEDNAVYYCNAARRAYGYNYWGQGTQVTVSS | low polyreactivity
17 | QVQLVESGGGLVQAGGSLRLSCAASGITFWPYALGWYRPAPGKERELVAAIRASVGRTYYADSVKGRFTISRDNAKNTVYLQMNSLKPEDTAVYYCNAYGRYGKFRVEYDYWGQGTQVTVSS | low polyreactivity
